Experiments:
[1] = system: AncSZ; test: phosphorylation enrichment, bacterial display (enrichment ratio); higher = better substrate or ligand; peptides without Tyr show the background
[2] = molecular target: EPHB1 (UniProt P54762); test: as above
[3] = molecular target: EPHB2 (UniProt P29323); test: as above
[4] = molecular target: FGFR1 (UniProt P11362); test: as above
[5] = molecular target: FGFR3 (UniProt P22607); test: as above
[6] = system: Fer (mouse); test: as above
[7] = molecular target: Fes (UniProt P07332); test: as above
[8] = molecular target: Fyn (UniProt P06241); test: as above
[9] = molecular target: Hck (UniProt P08631); test: as above
[10] = molecular target: Jak2 (UniProt O60674); test: as above
[11] = molecular target: MERTK (UniProt Q12866); test: as above
[12] = system: c-Abl (mouse); test: as above
[13] = system: c-Src; test: as above
[14] = molecular target: Grb2 SH2 (UniProt P62993); test: SH2 binding enrichment of the phosphorylated peptide, bacterial display (enrichment ratio); higher = better substrate or ligand; peptides without Tyr show the background
[15] = molecular target: SHP2-C SH2; test: as above
[16] = molecular target: c-Src SH2; test: as above
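Throughout, for SH2 binding enrichment of the phosphorylated peptide, bacterial display: peptide library displayed on the E. coli surface as eCPX fusions, selected cells deep-sequenced, score is each peptide's frequency after selection divided by its frequency in the input.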
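Throughout, for phosphorylation enrichment, bacterial display: 11-residue human phosphosite peptides and single-mutation variants displayed on the E. coli surface, counted by deep sequencing, each peptide's frequency after selection divided by its frequency in the unselected input library; frequency after pTyr selection over input frequency; kinase dosed for 20-30% of maximal phosphorylation in three min.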

Sequence of Hck (P08631 whole entry, looked up): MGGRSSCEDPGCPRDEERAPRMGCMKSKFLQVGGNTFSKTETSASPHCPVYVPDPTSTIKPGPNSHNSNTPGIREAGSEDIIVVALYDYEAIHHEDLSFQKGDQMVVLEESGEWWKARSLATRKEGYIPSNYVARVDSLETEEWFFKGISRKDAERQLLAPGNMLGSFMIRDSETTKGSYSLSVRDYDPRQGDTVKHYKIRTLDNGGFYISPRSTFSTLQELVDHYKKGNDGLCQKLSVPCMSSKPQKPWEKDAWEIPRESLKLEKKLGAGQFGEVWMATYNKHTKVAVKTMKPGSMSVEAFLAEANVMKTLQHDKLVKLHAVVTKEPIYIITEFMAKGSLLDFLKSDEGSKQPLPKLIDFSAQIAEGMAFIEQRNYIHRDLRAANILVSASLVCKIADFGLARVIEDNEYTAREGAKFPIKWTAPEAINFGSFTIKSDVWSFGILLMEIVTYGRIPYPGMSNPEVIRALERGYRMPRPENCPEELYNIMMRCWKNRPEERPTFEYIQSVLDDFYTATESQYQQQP
Sequence of MERTK (Q12866 whole entry, looked up): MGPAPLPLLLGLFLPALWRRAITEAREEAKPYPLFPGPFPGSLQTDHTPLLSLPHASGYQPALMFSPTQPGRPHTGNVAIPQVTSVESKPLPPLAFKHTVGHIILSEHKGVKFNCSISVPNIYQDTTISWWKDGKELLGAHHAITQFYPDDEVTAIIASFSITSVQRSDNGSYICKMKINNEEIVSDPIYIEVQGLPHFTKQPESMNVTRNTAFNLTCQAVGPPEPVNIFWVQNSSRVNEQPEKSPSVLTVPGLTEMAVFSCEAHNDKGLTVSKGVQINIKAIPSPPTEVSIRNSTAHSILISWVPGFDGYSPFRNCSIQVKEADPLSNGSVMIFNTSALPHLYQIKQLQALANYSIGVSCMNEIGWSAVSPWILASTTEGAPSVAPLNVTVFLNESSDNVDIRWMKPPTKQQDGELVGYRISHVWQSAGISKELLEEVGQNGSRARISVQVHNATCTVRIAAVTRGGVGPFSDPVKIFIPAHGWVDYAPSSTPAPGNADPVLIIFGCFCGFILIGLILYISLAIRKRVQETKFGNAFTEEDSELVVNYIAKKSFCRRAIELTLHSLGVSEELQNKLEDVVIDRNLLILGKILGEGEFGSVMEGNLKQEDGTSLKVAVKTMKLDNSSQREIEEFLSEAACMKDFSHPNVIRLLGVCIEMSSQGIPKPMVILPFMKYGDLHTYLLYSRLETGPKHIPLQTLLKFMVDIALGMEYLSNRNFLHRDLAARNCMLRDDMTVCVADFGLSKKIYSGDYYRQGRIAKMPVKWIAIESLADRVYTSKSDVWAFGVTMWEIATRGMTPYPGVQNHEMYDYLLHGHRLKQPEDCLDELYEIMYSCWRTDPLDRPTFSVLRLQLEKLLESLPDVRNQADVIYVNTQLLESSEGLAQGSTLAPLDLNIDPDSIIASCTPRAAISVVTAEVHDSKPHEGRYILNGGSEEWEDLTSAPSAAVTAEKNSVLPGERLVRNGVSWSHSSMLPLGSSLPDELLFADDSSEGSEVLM
Sequence of FGFR1 (P11362 whole entry, looked up): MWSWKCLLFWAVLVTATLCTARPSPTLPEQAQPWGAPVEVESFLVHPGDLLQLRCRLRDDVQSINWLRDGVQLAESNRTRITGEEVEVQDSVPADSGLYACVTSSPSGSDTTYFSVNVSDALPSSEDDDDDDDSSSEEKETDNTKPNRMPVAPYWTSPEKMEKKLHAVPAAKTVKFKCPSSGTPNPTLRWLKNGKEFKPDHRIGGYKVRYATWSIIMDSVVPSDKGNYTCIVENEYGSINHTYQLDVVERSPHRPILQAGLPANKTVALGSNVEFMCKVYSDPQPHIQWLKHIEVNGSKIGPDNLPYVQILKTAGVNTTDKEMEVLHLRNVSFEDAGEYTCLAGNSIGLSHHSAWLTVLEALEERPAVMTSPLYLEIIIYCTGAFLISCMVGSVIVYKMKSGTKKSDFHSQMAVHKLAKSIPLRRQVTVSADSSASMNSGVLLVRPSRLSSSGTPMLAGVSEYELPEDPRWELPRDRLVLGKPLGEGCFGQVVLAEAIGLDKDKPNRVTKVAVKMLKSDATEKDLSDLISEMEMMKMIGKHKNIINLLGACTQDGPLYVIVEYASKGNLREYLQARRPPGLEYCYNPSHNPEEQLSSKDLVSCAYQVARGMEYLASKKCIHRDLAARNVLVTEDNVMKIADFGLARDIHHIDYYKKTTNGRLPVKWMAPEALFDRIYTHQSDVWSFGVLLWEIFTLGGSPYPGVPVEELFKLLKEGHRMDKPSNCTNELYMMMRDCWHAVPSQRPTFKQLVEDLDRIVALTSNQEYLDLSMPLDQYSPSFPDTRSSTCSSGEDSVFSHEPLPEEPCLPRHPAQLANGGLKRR
Sequence of Fyn (P06241 whole entry, looked up): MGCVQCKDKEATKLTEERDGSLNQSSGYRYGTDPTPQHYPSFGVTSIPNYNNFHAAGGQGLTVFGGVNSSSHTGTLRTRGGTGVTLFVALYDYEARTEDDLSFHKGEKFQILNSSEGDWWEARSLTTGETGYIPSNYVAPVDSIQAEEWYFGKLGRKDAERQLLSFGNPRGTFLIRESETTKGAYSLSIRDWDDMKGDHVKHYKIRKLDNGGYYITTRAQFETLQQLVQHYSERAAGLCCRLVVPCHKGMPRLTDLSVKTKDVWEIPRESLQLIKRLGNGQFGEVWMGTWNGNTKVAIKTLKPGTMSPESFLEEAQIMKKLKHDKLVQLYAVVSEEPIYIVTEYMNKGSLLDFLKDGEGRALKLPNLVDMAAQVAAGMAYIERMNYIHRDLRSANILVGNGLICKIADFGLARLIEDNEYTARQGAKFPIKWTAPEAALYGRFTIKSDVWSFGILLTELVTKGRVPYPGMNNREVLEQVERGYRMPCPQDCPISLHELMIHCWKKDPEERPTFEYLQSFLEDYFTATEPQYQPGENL
Sequence of EPHB2 (P29323 whole entry, looked up): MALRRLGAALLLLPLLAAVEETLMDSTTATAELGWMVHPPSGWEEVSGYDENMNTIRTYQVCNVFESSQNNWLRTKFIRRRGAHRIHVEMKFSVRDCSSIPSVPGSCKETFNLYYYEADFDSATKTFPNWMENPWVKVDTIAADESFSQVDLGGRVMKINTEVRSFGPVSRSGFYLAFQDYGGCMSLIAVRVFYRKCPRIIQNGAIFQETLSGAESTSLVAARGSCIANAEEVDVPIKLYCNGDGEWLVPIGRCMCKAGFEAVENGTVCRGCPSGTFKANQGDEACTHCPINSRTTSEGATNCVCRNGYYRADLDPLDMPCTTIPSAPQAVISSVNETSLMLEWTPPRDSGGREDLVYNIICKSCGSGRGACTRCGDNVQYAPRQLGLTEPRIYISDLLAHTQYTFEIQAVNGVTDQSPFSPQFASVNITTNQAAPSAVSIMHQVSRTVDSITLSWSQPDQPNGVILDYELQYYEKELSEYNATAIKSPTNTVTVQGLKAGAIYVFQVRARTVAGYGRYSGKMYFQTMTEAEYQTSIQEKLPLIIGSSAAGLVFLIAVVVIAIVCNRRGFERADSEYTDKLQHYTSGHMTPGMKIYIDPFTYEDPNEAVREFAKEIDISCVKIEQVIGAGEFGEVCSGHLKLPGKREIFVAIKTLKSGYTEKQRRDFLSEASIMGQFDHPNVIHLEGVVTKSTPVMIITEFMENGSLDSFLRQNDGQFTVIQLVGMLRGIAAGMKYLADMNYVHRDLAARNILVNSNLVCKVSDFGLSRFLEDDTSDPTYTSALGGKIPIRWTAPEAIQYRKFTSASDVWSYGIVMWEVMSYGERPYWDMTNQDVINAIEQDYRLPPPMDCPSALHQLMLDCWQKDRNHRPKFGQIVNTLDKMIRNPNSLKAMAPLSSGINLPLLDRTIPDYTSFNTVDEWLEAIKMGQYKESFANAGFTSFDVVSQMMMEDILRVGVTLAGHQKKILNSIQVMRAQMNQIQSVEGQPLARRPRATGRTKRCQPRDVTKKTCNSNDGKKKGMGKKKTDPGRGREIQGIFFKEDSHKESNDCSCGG
Sequence of Fes (P07332 whole entry, looked up): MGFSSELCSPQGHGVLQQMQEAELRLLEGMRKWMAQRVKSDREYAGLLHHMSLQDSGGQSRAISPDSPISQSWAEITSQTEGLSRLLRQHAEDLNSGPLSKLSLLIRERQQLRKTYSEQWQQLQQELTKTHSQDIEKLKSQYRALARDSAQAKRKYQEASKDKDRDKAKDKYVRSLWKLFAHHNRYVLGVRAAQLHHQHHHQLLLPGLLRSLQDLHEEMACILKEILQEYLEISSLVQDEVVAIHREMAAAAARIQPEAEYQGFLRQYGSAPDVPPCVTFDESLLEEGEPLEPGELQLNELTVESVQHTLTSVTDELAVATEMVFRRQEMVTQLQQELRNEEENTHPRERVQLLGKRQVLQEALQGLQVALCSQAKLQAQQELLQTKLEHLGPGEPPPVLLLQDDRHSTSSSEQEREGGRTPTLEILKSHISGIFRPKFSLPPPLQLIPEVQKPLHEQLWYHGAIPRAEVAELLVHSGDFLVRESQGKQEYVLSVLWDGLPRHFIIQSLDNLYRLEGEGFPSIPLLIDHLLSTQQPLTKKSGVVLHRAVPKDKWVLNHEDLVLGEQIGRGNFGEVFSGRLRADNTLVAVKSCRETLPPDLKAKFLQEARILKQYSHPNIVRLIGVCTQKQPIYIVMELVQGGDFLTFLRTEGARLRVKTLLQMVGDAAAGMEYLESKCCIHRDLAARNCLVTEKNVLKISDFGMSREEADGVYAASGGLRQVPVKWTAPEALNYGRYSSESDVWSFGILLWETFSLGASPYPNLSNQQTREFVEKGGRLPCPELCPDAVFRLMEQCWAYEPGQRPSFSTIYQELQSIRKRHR
Sequence of Grb2 SH2 (P62993 whole entry, looked up): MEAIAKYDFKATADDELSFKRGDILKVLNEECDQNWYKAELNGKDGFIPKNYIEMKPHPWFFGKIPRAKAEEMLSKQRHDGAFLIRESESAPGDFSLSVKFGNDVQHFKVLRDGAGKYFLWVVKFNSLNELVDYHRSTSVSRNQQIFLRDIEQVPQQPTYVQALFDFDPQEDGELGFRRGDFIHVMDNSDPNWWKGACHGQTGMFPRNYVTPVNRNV

Sequence	phosphorylation enrichment [1]	phosphorylation enrichment [2]	phosphorylation enrichment [3]	phosphorylation enrichment [4]	phosphorylation enrichment [5]	phosphorylation enrichment [6]	phosphorylation enrichment [7]	phosphorylation enrichment [8]	phosphorylation enrichment [9]	phosphorylation enrichment [10]	phosphorylation enrichment [11]	phosphorylation enrichment [12]	phosphorylation enrichment [13]	SH2 binding enrichment [14]	SH2 binding enrichment [15]	SH2 binding enrichment [16]
GMEIVYVFVKK [DNAI2_Y5_YF]	1.4	0.709	0.654	0.587	0.862	0.58	1.44	0.554	0.673	1.59	0.481	1.22	0.627	0.941	0.787	0.556
GMSQAYSFSQR [DES_Y5_S7F]	0.761	0.317	0.453	0.392	0.481	0.338	0.755	0.389	0.379	0.551	0.721	0.454	0.495	0.818	0.747	0.476
GNLLIYTEFGN [HGD_Y166_K171N]	1.31	2.71	1.89	0.726	0.903	0.775	1.15	5.81	3.51	0.997	3.75	2.23	4.74	0.736	0.541	0.462
GNLQEYLTRHV [TGFBR2_Y336]	0.794	0.474	0.564	0.516	0.584	0.462	0.828	0.455	0.465	0.581	0.368	0.667	0.363	0.744	0.659	0.451
GQAPGYSFTAA [CYCS_Y47_YF]	0.502	0.354	0.427	0.422	0.428	0.364	0.509	0.393	0.416	0.471	0.389	0.504	0.503	0.653	0.8	0.577
GRDVIYKGFED [NFU1_Y194_G190R]	0.77	0.528	0.401	0.468	0.539	0.426	1	2.94	0.96	0.767	0.391	0.561	1.97	0.696	0.769	0.51
GRLGEYDIDEV [SMS_Y134_V132G]	1.3	0.909	0.859	0.551	1	0.688	1.45	0.789	0.647	1.27	0.494	0.881	0.643	0.649	0.484	0.555
GRTGHYLCNAC [GATA1_Y223_D218G]	0.445	0.4	0.287	0.436	0.433	0.32	0.631	0.332	0.392	0.446	0.481	0.375	0.296	1.25	0.872	0.917
GSERDYTYDEL [EIF2S2_Y174_E177D]	1.14	0.504	0.879	0.507	0.614	0.617	1.01	0.59	0.849	0.999	0.424	0.803	0.766	0.82	0.722	1.66
GSESDYIIMPN [SCARB1_Y133_V135I]	2.88	6.96	6.96	5.65	3.91	0.411	0.826	0.456	0.526	0.919	0.551	0.466	0.6	0.762	0.873	0.431
GSSKIYFLHPD [TLR5_Y108]	0.849	0.529	0.624	2.48	1.85	0.403	0.844	1.84	1.21	0.714	2.89	0.642	1.83	1.16	1.18	0.751
GYRVCYTPDSR [PTPRF_Y451_Y450C]	1.07	0.635	0.592	0.492	0.739	0.505	1.26	0.498	0.547	0.975	0.434	0.794	0.522	0.769	0.717	0.591
HCEDGYPGGSD [CTNND1_Y221_Y217C]	1.44	1.03	0.743	0.664	1.15	0.672	1.81	0.817	0.714	1.34	0.626	1.35	0.514	1.06	0.653	0.64
HDHFGYRQSVT [CD55_Y245_R240H_YF]	0.733	0.65	0.434	0.479	0.528	0.482	0.896	0.444	0.51	0.536	0.346	0.659	0.725	0.803	0.871	0.628
HDHYGYRQSVT [CD55_Y245_R240H]	0.801	0.4	0.713	0.695	0.623	0.743	1.06	0.94	0.969	1.06	0.883	0.622	0.538	0.895	0.833	0.654
HEDPMYDIIRD [RP9_Y142]	1.94	3.51	3.85	0.718	0.687	4.2	1.48	5.63	5.56	1.29	5.24	1.27	5.36	0.63	0.664	1.92

From the supplement of paper PMC10065799, “High-throughput profiling of sequence recognition by tyrosine kinases and SH2 domains using bacterial peptide display” (eLife, 2023)
